In patent publication US20180086841A1 (Merck Sharp & Dohme, published 2018):

Assays:
Test in all cases: flow cytometry on CHO-K1 transfectants, left sub-column
V49A = target: T1, V49A
T1 construct: also called hCD27 V49A
T1 receptor chain: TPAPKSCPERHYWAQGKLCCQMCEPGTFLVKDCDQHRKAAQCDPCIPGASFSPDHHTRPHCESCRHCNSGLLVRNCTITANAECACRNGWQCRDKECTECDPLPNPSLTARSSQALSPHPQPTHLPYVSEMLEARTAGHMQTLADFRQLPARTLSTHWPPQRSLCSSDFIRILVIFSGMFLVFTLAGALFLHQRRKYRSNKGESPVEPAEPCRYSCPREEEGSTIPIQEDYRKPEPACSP

G89A = target: T2, G89A
T2 construct: also called hCD27 G89A
T2 receptor chain: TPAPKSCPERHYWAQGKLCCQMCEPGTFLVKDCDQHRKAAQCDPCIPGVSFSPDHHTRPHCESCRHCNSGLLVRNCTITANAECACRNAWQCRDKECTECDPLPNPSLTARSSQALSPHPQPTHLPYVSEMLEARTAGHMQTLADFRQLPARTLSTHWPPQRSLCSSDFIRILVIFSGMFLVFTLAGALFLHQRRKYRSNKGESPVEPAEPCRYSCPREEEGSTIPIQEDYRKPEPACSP

E9A = target: T3, E9A
T3 construct: also called hCD27 E9A
T3 receptor chain: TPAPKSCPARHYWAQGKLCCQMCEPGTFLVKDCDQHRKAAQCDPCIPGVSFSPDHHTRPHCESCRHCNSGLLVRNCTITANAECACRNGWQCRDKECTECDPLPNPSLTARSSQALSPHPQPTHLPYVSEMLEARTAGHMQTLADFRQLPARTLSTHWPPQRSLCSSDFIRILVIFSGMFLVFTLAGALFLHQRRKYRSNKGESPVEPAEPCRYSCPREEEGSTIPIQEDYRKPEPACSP

H60A = target: T4, H60A
T4 construct: also called hCD27 H60A
T4 receptor chain: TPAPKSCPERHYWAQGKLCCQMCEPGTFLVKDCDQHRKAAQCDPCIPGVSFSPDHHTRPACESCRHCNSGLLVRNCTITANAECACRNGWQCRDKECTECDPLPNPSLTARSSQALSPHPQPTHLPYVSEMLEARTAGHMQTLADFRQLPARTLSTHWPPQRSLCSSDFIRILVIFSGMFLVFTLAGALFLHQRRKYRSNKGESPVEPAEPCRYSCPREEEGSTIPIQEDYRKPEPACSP

Q91A = target: T5, Q91A
T5 construct: also called hCD27 Q91A
T5 receptor chain: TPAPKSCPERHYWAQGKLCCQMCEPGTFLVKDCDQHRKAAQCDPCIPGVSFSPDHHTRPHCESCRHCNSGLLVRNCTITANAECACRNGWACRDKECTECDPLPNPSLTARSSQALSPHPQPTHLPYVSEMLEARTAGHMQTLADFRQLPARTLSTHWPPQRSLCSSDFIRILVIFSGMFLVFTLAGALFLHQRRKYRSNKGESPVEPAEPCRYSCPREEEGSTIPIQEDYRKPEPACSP

K17A = target: T6, K17A
T6 construct: also called hCD27 K17A
T6 receptor chain: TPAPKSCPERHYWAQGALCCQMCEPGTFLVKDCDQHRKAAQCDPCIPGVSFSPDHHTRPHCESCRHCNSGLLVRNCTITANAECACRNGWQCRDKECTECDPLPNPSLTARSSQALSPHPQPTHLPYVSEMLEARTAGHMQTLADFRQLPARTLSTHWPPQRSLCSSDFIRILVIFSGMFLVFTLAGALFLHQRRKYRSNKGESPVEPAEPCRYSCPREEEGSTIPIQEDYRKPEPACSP

I46A = target: T7, I46A
T7 construct: also called hCD27 I46A
T7 receptor chain: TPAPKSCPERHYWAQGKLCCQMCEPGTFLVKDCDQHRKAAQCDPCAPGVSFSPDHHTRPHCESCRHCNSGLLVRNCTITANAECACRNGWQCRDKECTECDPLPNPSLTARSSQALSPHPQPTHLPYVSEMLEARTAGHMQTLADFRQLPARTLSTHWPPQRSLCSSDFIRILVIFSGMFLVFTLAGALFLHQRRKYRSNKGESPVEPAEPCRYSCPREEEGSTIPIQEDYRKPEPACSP

F28A = target: T8, F28A
T8 construct: also called hCD27 F28A
T8 receptor chain: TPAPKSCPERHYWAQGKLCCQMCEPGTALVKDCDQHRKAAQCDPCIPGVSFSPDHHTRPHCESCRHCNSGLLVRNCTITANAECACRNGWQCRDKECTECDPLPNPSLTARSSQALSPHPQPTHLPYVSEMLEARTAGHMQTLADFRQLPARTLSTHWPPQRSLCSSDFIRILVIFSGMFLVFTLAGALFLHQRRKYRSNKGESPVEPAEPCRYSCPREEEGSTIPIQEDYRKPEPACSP

N88A = target: T9, N88A
T9 construct: also called hCD27 N88A
T9 receptor chain: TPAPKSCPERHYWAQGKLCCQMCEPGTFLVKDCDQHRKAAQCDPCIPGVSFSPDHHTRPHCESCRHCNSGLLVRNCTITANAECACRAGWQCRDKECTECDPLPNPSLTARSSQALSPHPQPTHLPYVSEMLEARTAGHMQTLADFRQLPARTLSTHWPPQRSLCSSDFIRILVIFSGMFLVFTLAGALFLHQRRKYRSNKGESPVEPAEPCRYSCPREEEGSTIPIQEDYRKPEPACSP

S63A = target: T10, S63A
T10 construct: also called hCD27 S63A
T10 receptor chain: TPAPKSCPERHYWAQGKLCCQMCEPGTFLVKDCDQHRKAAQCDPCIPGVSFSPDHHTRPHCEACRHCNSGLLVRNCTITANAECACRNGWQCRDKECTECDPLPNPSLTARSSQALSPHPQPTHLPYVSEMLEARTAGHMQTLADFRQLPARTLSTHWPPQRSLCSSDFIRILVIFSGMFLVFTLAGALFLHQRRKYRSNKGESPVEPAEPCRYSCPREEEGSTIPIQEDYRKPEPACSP

B1: hCD27.131A (mouse parental 131A) (antibody, mouse IgG1, V domains shown)
VH: QIQLVQSGPELKKPGETVKISCKASGYTFTNYGMNWVKQAPGKGLKWMGWINTNTGEPTYAEEFKGRFAFSLETSATTAYLQINNLKNEDTATYFCAREGDAMDYWGQGTSVTVSS
VL: QIVLTQSPAIMSASPGEKVTMTCSASSSVSYMHWYQQKSGTSPKRWIYDTSKLASGVPARFSGSGSGTSYSLTISSMEAEDAATYYCQQWNSYPFTFGSGTKLEIK
notes: Mouse IgG1 antibody; also called mouse hCD27.131A
binding, WT hCD27 = 100 (GM FITC) (V49A): 147% | binding, WT hCD27 = 100 (GM FITC) (G89A): 113% | binding, WT hCD27 = 100 (GM FITC) (E9A): 96.7% | binding, WT hCD27 = 100 (GM FITC) (H60A): 178% | binding, WT hCD27 = 100 (GM FITC) (Q91A): 148% | binding, WT hCD27 = 100 (GM FITC) (K17A): 103% | binding, WT hCD27 = 100 (GM FITC) (I46A): 132% | binding, WT hCD27 = 100 (GM FITC) (F28A): 106% | binding, WT hCD27 = 100 (GM FITC) (N88A): 162% | binding, WT hCD27 = 100 (GM FITC) (S63A): 162%
